{
  "source": "patent US20190256612A1",
  "about": "(NEW YORK UNIVERSITY, published 2019)",
  "binders": {"B1": {"name": "anti-β-sheet conformational monoclonal antibody (aβComAb) GW-23B7 (antibody)", "heavy": "EVQLQQSVAELVRPGASVKLSCTASGFNIKNTYMHWVKQRPEQGLEWIGRIDPANGNTKYAPKFQGKATITADTSSNTAYLQLSSLTSEDTAIYYCARGSFYAMDYWGQGTSVTVSSESQSFPNVFPLVSCESPLSDKNLVAMGCLARDFLPSTISFTWNYQNNTEVIQGIRTFPTLRTGGKYLATSQVLLSPKSILEGSDEYLVCKIHYGGKNRDLHVPIPAVAEMNPNVNVFVPPRDGFSGPAPRKSKLICEATNFTPKPITVSWLKDGKLVESGFTTDPVTIENKGSTPQTYKVISTLTISEIDWLNLNVYTCRVDHRGLTFLKNVSSTCAASPSTDILTFTIPPSFADIFLSKSANLTCLVSNLATYETLNISWASQSGEPLETKIKIMESHPNGTFSAKGVASVCVEDWNNRKEFVCTVTHRDLPSPQKKFISKPNEVHKHPPAVYLLPPAREQLNLRESATVTCLVKGFSPADISVQWLQRGQLLPQEKYVTSAPMPEPGAPGFYFTHSILTVTEEEWNSGETYTCVVGHEALPHLVTERTVDKSTGKPTLYNVSLIMSDTGGTCY", "light": "DVQITQSPSYLAASPGETITINCRASKSINKYLAWYQEKPGKTNKLLIYSGSTLQSGIPSRFSGSGSGTDFTLTISSLEPEDFAMYHCQQHNEYPWTFGGGTKLEIKRADAAPTVSIFPPSSEQLTSGGASVVCFLNNFYPRDINVKWKIDGSERQNGVLNSWTDQDSKDSTYSMSSTLTLTKDEYERHNSYTCEATHKTSTSPIVKSFNRNEC"}},
  "key": {"[1]": {"biological_target": "T1, Aβ40p (Covalently polymerized with glutaraldehyde into stable oligomers. The cross-links between copies cannot be carried by the letters, so only the monomer unit is given.)", "T1 construct": "also called Aβ1-40 polymerized; Aβ1-40 polymerized with glutaraldehyde", "assay": "immunoblot after SDS-PAGE, antigen on nitrocellulose, anti-mouse IgM detection"}, "[2]": {"biological_target": "T2, Aβ1-40", "T2 construct": "also called Aβ1-40 as loaded on the gel (not polymerized)", "assay": "immunoblot after SDS-PAGE, antigen on nitrocellulose, anti-mouse IgM detection"}, "[3]": {"biological_target": "T3, glutaraldehyde polymerized Aβ1-42 (oligomeric Aβ1-42) (UniProt P05067 672-713)", "T3 construct": "domain: Aβ1-42", "assay": "SPR, polymerized Aβ1-42 immobilised, antibody injected"}},
  "data": [
    {"binder": "B1", "values": [
      {"measurement": "binding result", "setting": "[1]", "value": "binds"},
      {"measurement": "binding result", "setting": "[2]", "value": "binds"},
      {"measurement": "Kd", "setting": "[3]", "value": 14, "unit": "nM"}
    ]}
  ]
}
